Source: patent publication US12241099B2, “Peptide therapeutics for treating Alzheimer's disease and related conditions” (The Board of Regents of the University of Oklahoma, priority 2018, dated 2025)
Residues, ends and D or L forms follow the SMILES beside them. No end group written: not given here.

Assays:
Aβ1-42 [1] = target: T1, Aβ1-42 (Homo sapiens, UniProt P05067); assay: ELISA binding of Aβ1-42 to plate-coated neutrophil proteins and derived peptides; settings: for binding of Aβ1-42: 150 nM Aβ1-42, plate coated with protein/peptide at 5 μg/ml, no protease inhibitor; for binding of Aβ1-42 on addition of antiproteases: 1 mM PMSF (CAP37, NE) or 125 μM chymostatin (CG)
Procedure: CAP37, NE, and CG were purified from human neutrophils and purchased from Athens Research and Technology. BSA was from Sigma Aldrich. CAP37-derived peptides were synthesized by CS Bio Co with a purity >95%. Maxisorp plates from Nunc were coated with 100 μl neutrophil protein, peptide, or BSA diluted at 5 μg/ml in PBS with or without 1 mM PMSF purchased from Sigma Aldrich (for experiments with CAP37, NE, and BSA) or ±125 μM chymostatin purchased from Santa Cruz (for experiments with CG and BSA). Plate coating was done at room temperature for 2 hours with shaking and then at 4° C. overnight. Plates were washed three times in PBST (PBS+0.05% tween), then blocked with 3% BSA in PBST for 1 hour at room temperature with shaking. Plates were washed 3× in PBST, and 150 nM Aβ1-42 (purchased from Bachem and reconstituted in 1 mM NaOH) was added in 0.1% BSA in PBST and incubated 70 minutes at 37° C. Plates were then washed 4 times with PBST and monoclonal mouse anti-amyloid precursor protein/amyloid beta antibody, purchased from Cell Signaling Technology was added at a 1:500 dilution in 1% BSA in PBST and incubated for 1 hour at room temperature with shaking. Plates were washed 4× in PBST and donkey anti mouse HRP-conjugated secondary antibody from Jackson ImmunoResearch Laboratories was added at 1:10,000 in PBST and incubated 1 hour at room temperature with shaking, then washed 4 times in PBST. […] Sulfuric acid (5N) was added to each well to stop the reaction, and the absorbance at 492 nm was read on a Biotek Synergy II plate reader.

Aβ1-42 [2] = target: T1, Aβ1-42; assay: Amyloid Beta (1-42) Thioflavin T fibrillation (aggregation) assay; type: biochemical; set-up: used to monitor the formation of Aβ1-42 peptide fibrils; purchased Anaspec; settings: for inhibition of Aβ1-42 fibrillation (in words): increasing concentrations of peptide, Rfu; for molar ratio inhibitor/Aβ1-42 corresponding to IC50 of fibrillation: ratio at IC50
Procedure: The Amyloid Beta (1-42) Thioflavin T Aggregation Kit was purchased from Anaspec and used to monitor the formation of Aβ1-42 peptide fibrils, according to the manufacturer's instructions, with some modifications. Thioflavin T dye was diluted to 250 μM in fibrillation buffer A and kept in the dark until use. […] Neutrophil proteins were tested in the absence and presence of protease inhibitors. […] Chymostatin was dissolved in DMSO and used at 125 μM final concentration in reactions with CG. Reactions were pipetted up and down twice in the wells with a multichannel pipette to ensure mixing, and fluorescence (ΔEX=440 nm, ΔEm=485 nm) was read every 5 minutes for 3 hours on a BioTek Synergy 2 plate reader with Gen 5 software, with a sensitivity set at 65.

[3] = tested on: mouse neuroblastoma cell line Neuro-2a; assay: Neurotoxicity assay of Aβ1-42 fibrils/oligomers (trypan blue cell death); type: cell-based; settings: for effect on Aβ1-42 oligomer toxicity: oligomers formed 15 min in presence of increasing concentrations; for effect on Aβ1-42 oligomer toxicity / effect on toxicity of Aβ1-42 fibrils: 18 μM Aβ1-42 on cells, 24 hours; for effect on toxicity of Aβ1-42 fibrils: protein at IC50 of fibrillation pre-incubated with Aβ1-42 24 hours in fibrillation conditions; for concentration at which significant inhibition of oligomer toxicity starts: tested at 0.5, 1, 2 and 4-fold the fibrillation IC50
Procedure: A mouse neuroblastoma cell line Neuro-2a from ATCC was used for these experiments. Cells were grown and seeded in 96 well plates at 20,000 cells per well in complete medium (MEM α, nucleosides, no phenol red from Gibco, with 10% heat inactivated fetal bovine serum from Gibco, and penicillin/streptomycin from Lonza). At 24 hours after seeding, cells were washed with warmed MEM α, and then incubated in 90 μl MEM α+N2 Supplements+20 μl test sample (Aβ1-42 prepared as described below). Cells were incubated another 24 hours at 37° C., and then dislodged by pipetting up and down vigorously. 10 μl of cells were added to 10 μl trypan blue dye (0.4% solution) from BioRad, mixed and counted in a BioRad TC20 cell counter. The percent of living and dead cells was recorded for each well. In the case of the water and Triton X100 controls, 20 μl MEM α+N2 Supplements was added instead of the test sample and, just before counting the cells, 20 μl of medium was removed and replaced with 20 μl water or Triton X100 at a final concentration of 0.1%.
Monomeric Aβ1-42 (hexafluoroisopropanol treated Aβ1-42) from Bachem was reconstituted at 5 mM in anhydrous DMSO. Untreated Aβ1-42 from CS Bio was also used in these experiments. It was first treated with 1 mM in hexafluoroisopropanol from Sigma Aldrich, incubated 30 min at room temperature, and left open to dry in the fume hood overnight. It was then vacuum desiccated for 1 hour at room temperature. Dry films of Aβ1-42 were stored at −20° C. until use to keep it under a monomeric form. Aβ1-42 from CS Bio was also reconstituted in anhydrous DMSO at 5 mM before use.
To prepare the fibril and oligomer test samples, monomeric Aβ1-42 was placed under conditions favoring either formation of fibrils or oligomers. To form fibrils, 100 μM Aβ1-42 was added to Anaspec fibrillation buffer A±neutrophil protein, and incubated at 37° C. 24 hours before addition to the cells at a final concentration of 18 μM. Neutrophil proteins were used at Aβ/Protein ratios that led to 50% inhibition of fibrillation (IC50), previously determined for each protein in the fibrillation assay. To form oligomers, MEM α+N2 Supplements was used instead of the fibrillation buffer A±increasing concentrations of neutrophil protein or CAP37-derived peptide. Each mixture was then added to a tube containing freshly prepared Aβ1-42 in DMSO at a final concentration of 100 μM, and incubated 15 min at room temperature. These test samples were then tested on the cells at a final concentration of 18 μM.
Oligomers were formed by incubating 100 μM Aβ1-42 in MEMα+N2 Supplements at 4° C. for 3 days. […] Finally, these oligomers were added to neurons at a final concentration of 18 μM, and percent cell death was measured at 24 h.

T1 sequence (P05067 672-713 limits assumed): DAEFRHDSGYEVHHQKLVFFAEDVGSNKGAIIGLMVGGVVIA

Row | Molecule | binding of Aβ1-42 (Aβ1-42 [1]) | inhibition of Aβ1-42 fibrillation (in words) (Aβ1-42 [2]) | effect on Aβ1-42 oligomer toxicity [3] | further results
1 | CG119-144 ΔR129V130: mutant CG-derived peptide, CG119-144 with positively charged R129 (and V130) deleted (GTLCTVAGWGSMRRGTDTLREVQL) | abolished the binding | no inhibitory effect |  | 
2 | GTLCTVAGWGRVSMRRGTDTLRPRVQL (Completely synthesized in the lab. Peptide CG119-144.) [CG119-144 E141PR] | increased the binding | inhibitory effects |  | 
3 | NQGRHFSGGALIHARFVMTAASCFQ (Completely synthesized in the lab. Peptide CAP3720-44C26S.) [20-44 SC, mutant CAP37-derived peptide 20-44] | binds |  |  | 
4 | 95-122 5RMP: 95-122 with two AEEA mini-PEG molecules and 4 arginines at the N-terminal end and one arginine at the C-terminal end (RRRRLDREANLTSSVTILPLPLQNATVEAGTRR; also: two AEEA mini-PEG molecules, place not given here) | does not interact | did not inhibit fibrillation |  | 
5 | 95-122: wild-type CAP37-derived peptide 95-122 (LDREANLTSSVTILPLPLQNATVEAGTR) | did not bind |  |  | 
6 | NE: neutrophil elastase, full-length, purified from human neutrophils | almost undetectable |  | significantly inhibited | binding of Aβ1-42 on addition of antiproteases (Aβ1-42 [1]): significantly increased; effect on toxicity of Aβ1-42 fibrils [3]: significant inhibition; concentration at which significant inhibition of oligomer toxicity starts [3]: 2 ×IC50
7 | GTRCQVAGWGSQRSGGRLSRFPRFVNV (Completely synthesized in the lab. Amino acids 120-146 of CAP37 protein.) [120-146 QR, wild-type CAP37-derived peptide, amino acids 120-146 of CAP37 protein] | binds |  |  | 
8 | CG: cathepsin G, full-length, purified from human neutrophils | stronger |  | significantly inhibited | binding of Aβ1-42 on addition of antiproteases (Aβ1-42 [1]): not significantly changed; effect on toxicity of Aβ1-42 fibrils [3]: significant inhibition; concentration at which significant inhibition of oligomer toxicity starts [3]: 0.5 ×IC50
9 | GTLCTVAGWGRVSMRRGTDTLREVQL (Completely synthesized in the lab. Amino acids 119-144 of Cathepsin G protein.) [CG119-144] | Highest levels | no inhibitory effect |  | 
10 | CSCC[C@H](NC(=O)[C@H](CO)NC(=O)[C@@H](NC(=O)[C@H](CCCNC(=N)N)NC(=O)CNC(=O)[C@H](Cc1c[nH]c2ccccc12)NC(=O)CNC(=O)[C@H](C)NC(=O)[C@@H](NC(=O)[C@@H](NC(=O)[C@H](CS)NC(=O)[C@H](CC(C)C)NC(=O)[C@@H](NC(=O)CN)[C@@H](C)O)[C@@H](C)O)C(C)C)C(C)C)C(=O)N[C@@H](CCCNC(=N)N)C(=O)N[C@@H](CCCNC(=N)N)C(=O)NCC(=O)N[C@H](C(=O)N[C@@H](CCCNC(=N)N)C(=O)N[C@H](C(=O)N[C@@H](CC(C)C)C(=O)N[C@@H](CCCNC(=N)N)C(=O)N[C@@H](CCC(=O)O)C(=O)N[C@H](C(=O)N[C@@H](CCC(N)=O)C(=O)N[C@@H](CC(C)C)C(=O)O)C(C)C)[C@@H](C)O)[C@@H](C)O [CG119-144 D137R] (H-GTLCTVAGWGRVSMRRGTRTLREVQL-OH; N-terminus and C-terminus assumed) | increased the binding | inhibitory effects | significantly decrease | molar ratio inhibitor/Aβ1-42 corresponding to IC50 of fibrillation (Aβ1-42 [2]): 1/3; effect on neurotoxicity of preformed Aβ1-42 oligomers ([3]; oligomers formed first (3 days, 4° C.), then incubated with peptide at 2×IC50 for 3 days, 18 μM on neurons, cell death at 24 h): significantly reversed
11 | NQGRHFCGGALIHARFVMTAASCFQ (Completely synthesized in the lab. Amino acids 20-44 of CAP37 protein.) [20-44 CC, wild-type CAP37-derived peptide, amino acids 20-44 of CAP37 protein] | binds |  |  | 
12 | CAP37: cationic antimicrobial protein of molecular weight 37 KDa, full-length, purified from human neutrophils (protein) IVGGRKARPRQFPFLASIQNQGRHFCGGALIHARFVMTAASCFQSQNPGVSTVVLGAYDLRRRERQSRQTFSISSMSENGYDPQQNLNDLMLLQLDREANLTSSVTILPLPLQNATVEAGTRCQVAGWGSQRSGGRLSRFPRFVNVTVTPEDQCRPNNVCTGVLTRRGGICNGDGGTPLVCEGLAHGVASFSLGPCGRGPDFFTRVALFRDWIDGVLNNPGP | stronger |  | does not inhibit | binding of Aβ1-42 on addition of antiproteases (Aβ1-42 [1]): not significantly changed; molar ratio inhibitor/Aβ1-42 corresponding to IC50 of fibrillation (Aβ1-42 [2]): 1/11; effect on toxicity of Aβ1-42 fibrils [3]: no effect
